In patent US20240376180A1 (DEUTSCHES ZENTRUM FUR NEURODEGENERATIVE ERKRANKUNGEN E V …, published 2024):
Positions count from the first letter of the chain named.

B1: HL CV07-250 (antibody, V domains shown)
VH: QVQLVQSEAEVKEPGASVEVSCKASGYNFTNFAISWVRQAPGQGLEWMGWISGYNGDTNSAQKFLGRVTMTTDTSTTTAYMELRSLRSDDTAVYYCAGSDNYGFPYNGMDVWGQGTTVTVSS
VL: QSALTQPPSASGSPGQSVTISCTGTSSDLGAYHFVTWYQHYPGKAPKVMIYGVRKRPSGVPDRFSGSKSGNTASLTVSGLQDEDEADYYCSSYAGNNDFVFGGGTKLTVLS
B2: HL CV07-222 (antibody, V domains shown)
VH: QVQLVQSGAEVKKPGASVKVSCKASGYTFTDYYVHWVRQAPGQGLEWMGWINPISGGTNYAQKFQGRVTMTRDTSISTAYMELSRLRSDDTAVYYCARGPYYYDSSGSLGAFDIWGQGTMVTVSS
VL: QSALTQPASVSGSPGQSITISCTGTSSDVGSYNLVSWYQQHPGKAPKLMIYEGSKRPSGVSNRFSGSKSGNTASLTISGLQAEDEAHYYCCSYAGGSTSYVFGTGTKVTVLG
B3: HL CV07-255 (antibody, V domains shown)
VH: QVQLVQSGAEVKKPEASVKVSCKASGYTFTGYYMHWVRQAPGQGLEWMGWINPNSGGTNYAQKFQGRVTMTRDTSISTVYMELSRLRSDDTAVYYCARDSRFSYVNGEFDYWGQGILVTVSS
VL: QSALTQPASVSGSPGQSITISCTRTSSDVESYNLVSWYQQHPGKAPKLMIYEVSKRPSGISNRFSGSKSGNTASLTISGLQAEDEADYYCCSYAGHSTWVFGGGTELTVLG
B4: HL CV07-262 (antibody, V domains shown)
VH: QVQLVQSGAEVKKPGASVKVSCKASGYTFTGYYMHWVRQAPGQGLEWMGWINPNSGGTNYAQTFQGRVTMTRDTSITTTYMELSRLRSDDTAVYYCARVGWYDFGTPGDYYYYYGMDVWGQGTTVTVSS
VL: B3 VL with R24G, E30G, V53G, I60V, Y89F, H96T, W99F, G103T, E106K, L107V
B5: HK CVX1-126 (antibody, V domains shown)
VH: EVQLVESGGGLVQPGGSLRLSCAASGLTVSSNYMSWVRQAPGKGLEWVSVIYSGGSTYYADSVKGRFTISRHNSKNTLYLQMNSVRAEDTAVYYCARDLSEGGMDVWGQGTTVTVSS
VL: DIQMTQSPSSVSASVGDRVTITCRASQGISSWLAWYQQKPGKAPKLLIYAASTLQSGVPSRFSGSGSGTDFTLTISSLQPEDFATYYCQQANGFPPLFGGGTKVEIKR
B6: HK CV38-221 (antibody, V domains shown)
VH: EVQLVESGGGLVQPGGSLRLSCAASGITVSSNYMIWVRQAPGKGLEWVSVIYSGGSTYYADSVKGRFTISRDNSKNTLYLQMNSLRAEDTAVYYCARGFGDYYFDYWGQGTLVTVSS
VL: EIVLTQSPGTLSLSPGERATLSCRASQSVSSSYFAWYQQKPGQAPRLLIYGASSRATGIPDRFSGSGSGTDFTLTISRLEPEDFAVYYCQQLYTFGQGTKLEIKR
B7: HL CV07-315 (antibody, V domains shown)
VH: EVQLVESGGGLVQPGRSLRLSCAASGFTFDDYAMHWVRQAPGKGLEWVSGISWNSGSIGYADSVKGRFTISRDNAKNSLYLQMNSLRAEDTALYYCAKDFLWDLHPPRYYGMDVWGQGTTVTVSS
VL: QSVLTRPPSVSAAPGQKVTISCSGSSSNIGNNYVSWYQQLPGTAPKLLIYENNKRPSGIPDRFSGSKSGTSATLGITGLQTGDEADYYCGTWDSSLNGVFGGGTKLTVLG
B8: HK CV38-139 (antibody, V domains shown)
VH: EVQLVESGGGLVQPGGSLRLSCAASGFTVSSNYMSWVRQAPGKGLEWVSVFYSGGSTFYADSVKGRFTISRDNSKNTLYLQMNSLRAEDTAVYYCARGHYDLFDYWGQGTLVTVSS
VL: DIQLTQSPSFLSASVGDRVTITCRASQGISSYLAWYQQKPGKAPKLLIYAASTLQSGVPSRFSGSGSGTEFTLTISSLQPEDFATYYCQQLNSYPPGTFGPGTKVDIKR
B9: HK CV38-113 (antibody, V domains shown)
VH: EVQLVESGGGLVQPGGSLRLSCAASGFTVSSNYMSWVRQAPGKGLEWVSVIYSGGSTYYADSVKGRFTISRHNSKNTLYLQMNSLRAEDTAVYFCARGGRLADAAGDYWGQGTLVTVSS
VL: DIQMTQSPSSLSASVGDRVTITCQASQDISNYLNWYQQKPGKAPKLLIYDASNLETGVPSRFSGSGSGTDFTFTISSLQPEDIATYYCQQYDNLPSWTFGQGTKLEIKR
B10: HK CV07-209 (antibody, V domains shown)
VH: QVQLVESGGGLVKPGGSLRLSCAASGFTFSDYYMSWIRQAPGKGLEWVSYISSSVSTIYYADSVKGRFTISRDNAKNSLYLQMNSLRAEDTAVYYCARDGVIPPRFDYWGQGTLVTVSS
VL: not shown
B11: HK CV07-287 (antibody, V domains shown)
VH: QVQLVQSGPEVKKPGTSVKVSCKASGFTFTSSAMQWVRQARGQRLEWIGWIVVGSGNTNYAQKFQERVTITRDMSTSTAYMELSSLRSEDTAVYYCAAPYCSSTNCYDAFDIWGQGTMVTVSS
VL: not shown
B12: HK CVX2-106 (antibody, V domains shown)
VH: QVQLVQSGAEVKKPGSSVKVSCKASGGTFSSYAISWVRQAPGQGLEWMGGIIPIFGTANYAQKFQGRVTITADESTSTAYMELSSLRSEDTAVYYCATRKETTVTTSLVYGMDVWGQGTTVTVSS
VL: not shown
B13: HL CV07-270 (antibody, V domains shown)
VH: QVQLVESGGGLVKPGGSLRLSCAASGFTFSDYYMTWIRQAPGKGLEWVSYISSSGSTIYYADSVKGRFTISRDNAKNSLYLQMNSLRAEDTAVYYCARARGSSGWYRIGTRWGNWFDPWGQGTLVTVSS
VL: QSALTQPASVSGSPGQSITISCTGTSSDVGGYNYVSWYQQHPGKAPKLMIYEVSNRPSGVSNRFSGSKSGNTASLTISGLQAEDEADYYCSSYTSSSNVVFGGGTMLTVLG
B14: HL CV07-283 (antibody, V domains shown)
VH: QVQLVQSGAEVKKPGASAKVSCKASGYTFTGYYIHWVRQAPGQGLEWMGLINPISGGTNYAQKFQDRVTMTRDTSISTAYMELSRLRSDDTAVYYCVRGPFYYDSSGPLGGMDVWGQGTTVTVSS
VL: B13 VL with S27G, N98T, V99Y, G103T, M106K, L107V

molecular target: SARS-CoV-2 Spike RBD-Fc (SARS-CoV-2); assay: ELISA, RBD-Fc captured via anti-rabbit IgG, concentration-dependent binding

| Binder | EC50 [ng/mL] |
| --- | --- |
| B1 | 8.7 |
| B2 | 5.5 |
| B3 | 4.8 |
| B4 | 12.1 |
| B5 | 5.5 |
| B6 | 6.4 |
| B7 | 7.2 |
| B8 | 8.9 |
| B9 | 5.2 |
| B10 | 4.1 |
| B11 | 5.9 |
| B12 | 5.6 |
| B13 | 14.2 |
| B14 | 4 |
